For orientation: Kd means the free concentration of one partner at which half of the binding sites on the other are occupied at equilibrium, for simple one-to-one binding. Higher therefore signals a looser complex.

Experiment [1] concerns the target UAG binding sites on human CAC (circulating angiogenic cell) membranes (human). Description: saturation radioligand binding on CAC membranes, Scatchard analysis.
Experiment [2] has the same target. As to the kind of experiment: radioligand binding to CAC membranes; binding without minus binding with 100 nM unlabelled UAG.
For experiment [3] the target is unchanged. Description: radioligand binding to frozen-thawed CAC membranes, two cell preparations.
Experiment [4] shares this target. As to the kind of experiment: radioligand binding to fresh CAC membranes, two cell preparations.
For experiment [5] the target is unchanged. As to the kind of experiment: saturation radioligand binding on CAC membranes.

“And” between values parts separate entries of the source, which are not always exact repeats. Equal values may be shown once. Where no end group is shown, it is not given here. The star is where a group is joined. 125I = [125I]*

For the molecule GSSY(125I)LSPEHQRVQQRKESKKPPAKLQPR [[125I-Tyr4]-UAG], in experiment [1], the Bmax (fmol/mg membrane protein) was 10.7 and the Kd stood at 0.48 nM. In addition, in experiment [2], the specific binding, percent of control value stood at 75%. The specific binding, frozen-thawed CAC membranes in experiment [3] is 0.2 fmol and 0.33 fmol. Moreover, the specific binding, fresh CAC membranes in experiment [4] is 0.25 fmol and 0.26 fmol. For the same molecule, the radioligand concentration at maximal specific binding in experiment [5] worked out at 2 nM.
